The text below walks through data of the supplement of paper PMC9170038.

The test system of data set [1] is MS2 coat protein. The experiment in a line: apparent KD of MS2 coat protein, switch ON state; designed switch direction (-1 OFF switch, 1 ON switch): 1; higher = weaker reporter binding. The following applies: FMN input: 0 or 200 uM; Eterna round: R93 (includes R88 designs). In a few lines: (§1)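 In 100 mM Tris-HCl pH 7.5 with 80 mM KCl and 4 mM MgCl2, and without or with constant ligand, SNAP-549-labelled MS2 coat protein was titrated in twofold steps from 0.7 or 1.5 nM to 3 µM. Per-step times went from 0.8–1.5 h down to 10–20 min. The RNA switches were transcribed on-chip from Illumina sequencing clusters, and apparent KD is the per-design median of normalised cluster binding-curve fits.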

For data set [2], the system named is MS2 coat protein. The experiment in a line: apparent KD of MS2 coat protein, switch OFF state (with FMN for OFF switches, without FMN for ON switches); designed switch direction (-1 OFF switch, 1 ON switch): 1; higher = weaker reporter binding. The following applies: FMN input: 0 or 200 uM; Eterna round: R93 (includes R88 designs). The method in brief:
as §1

Take “UUUAAUUAUACGAAGGAUAUCGGUAAUUAGACAUGAGGAUCACCCAUGUUAUAUGGUUAAAUAUUCGAGAAGGUCGCGGGUGAAC [JR_SS002_Sub507]”: the “apparent KD of MS2 coat protein” value in data set [1] was 47.8 nM; in data set [2], 33.6 nM.
On the same counts, the results for “GAAAAACAUGAGGAUCACCCAUGUAGAAAUAUGGGAGGAUAUACAAAGUCGAAAGUCAAAGUAGAAGGCCUAAAAG [Garnet 26]” are 40.7 nM and 170 nM.
For the sequence “GGAAAGGAGAGAGAGGAUAUCCAAAGGAAAACAUGAGGAUCACCCAUGUAGAAGGUAGGAAAUUGGGAGAAGGCUCAAGAAAGAG [salish99-ss2-138]”, the “apparent KD of MS2 coat protein” value was determined as 21 nM in data set [1] and 57.2 nM in data set [2].
As to “CAUCAUGCGCCUAAGGAUAUGUCCCACAAGACAUGAGGAUCACCCAUGUAGCCAAUUAAUACGGUGCAGAAGGUGGAGCGCAUGC [Qusotior]”, the “apparent KD of MS2 coat protein” value in data set [1] is 315 nM; in data set [2], 1080 nM.
As to “GAAAAACAUGAGGAUCACCCAUGUAAAAAUAUGGGAGGAUAUUCAAACACGAAAGUCAAAGAAGAAGGCCUAAAAG [Garnet 2]”, the “apparent KD of MS2 coat protein” value turned out to be 30.4 nM in data set [1] and 207 nM in data set [2].
On the same counts, the results for “AAAAAAAAAAGUGAGGAUAUGUGAUCGGUGACAUGAGGAUCACCCAUGUGAGGCCUUCGGGCCGGACAGAAGGCACAAAAAAAAA [Same State 2-X]” are 78.1 nM and 257 nM.
The corresponding values for “GAAAAACAUGAGGAUCACCCAUGUAGAGAUAUGGGAGGAUAUACGAAGACGAAAGACGAAGUAGAAGGCCUAAAAG [Garnet 58]” are 35.1 nM and 180 nM.
As for “AAUAAUUAUAACGAGGAUAUCCGUAAUAAGACAUGAGGAUCACCCAUGUAAUAAGGGUAAAUAAAGGAGAAGGCGUAGGGUGAAA [JR_SS002_Sub002]”, the entries for the “apparent KD of MS2 coat protein” value in data set [1] and in data set [2] were 44.3 nM and 61.1 nM, respectively.
With “AGGAGACAUGAGGAUCACCCAUGUGCGAGGUGAAGAGGAUAUAGAAGAAGAAGAAAGAAACUAGAAGGCUUAAAAA [JR_SameState1_Sub1]”, the “apparent KD of MS2 coat protein” value in data set [1] worked out at 122 nM; in data set [2], 125 nM.
Consider “AAAACACAUGAGGAUCACCCAUGUAGAAAUACUGGAGGAUAUGCUAAAACGAAAGACAAUGUAGAAGGCCGAAAAG [saturn 11]”, for which the results for the “apparent KD of MS2 coat protein” value in data set [1] and in data set [2] were 71.6 nM and 208 nM, respectively.
For “AAGAAACAUGAGGAUCACCCAUGUGAGAAUAACACAGGAUAUGCAAAAGAAAGAAAGAAAGCAGAAGGGUGAAGAA [Mat - Same State 1 - Tesla mod - 53]”, the “apparent KD of MS2 coat protein” value amounted to 23.3 nM in data set [1] and 59.1 nM in data set [2].
On the same counts, the results for “CGAAAGGAGAGAGAGGAUAUCCAAAGGAAAACAUGAGGAUCACCCAUGUAGAAGGUAGGAGAUUGGGAGAAGGCUCAAGAGAGGC [salish99-ss2-150]” are 18.5 nM and 46.7 nM.
On the same counts, the results for “AAAACACAUGAGGAUCACCCAUGUAAAAACAUGAGAGGAUAUGCAUGGAAAACAUGCUAUGCAGAAGGCUCAUGUG [SS1 - 3]” are 23.2 nM and 34.6 nM.
In the case of “AGAAAACAUGAGGAUCACCCAUGUGAUAAUAUGGGAGGAUAUACGGAGACGAAAGUCGACGUAGAAGGCCUAAAGA [Garnet 49]”, the “apparent KD of MS2 coat protein” value amounted to 42.9 nM in data set [1] and 82.8 nM in data set [2].
The corresponding values for “AAAAAAAAGCCCAAGGAUAUCCGGAUGAAGACAUGAGGAUCACCCAUGUGAAAAAAAAAAUAUGAGGAGAAGGUGGGAAAAAAAAA [Esgemaedso]” are 63.4 nM and 76.6 nM.
“AAUAAUUAUACGAAGGAUAUCGGUAAUUAGACAUGAGGAUCACCCAUGUAAUAUGGUUAAAUAAUCGAGAAGGUCGAGGGUGAAA [JR_SS002_Sub503]”: the “apparent KD of MS2 coat protein” value is 55.3 nM in data set [1] and 42.2 nM in data set [2].
